In US20250282890A1 (TECHNISCHE UNIVERSIT T M NCHEN, published 2025):
Positions count from the first letter of the chain named.

B1: 6-5D3-hFab (Fab, V domains shown)
VH: EVQLVESGGGLVQPGGSLRLSCAASGYAFNTSWMNWVRQAPGKGLEWISRIYPGDGDTNYNGKFKGKATISADKSKNTLYLQMNSLRAEDTAVYYCARGEWYLYYFDYWGQGTLVTVSS
VL: DIQMTQSPSSLSASVGDRVTITCSASQGINNFLTWYQQKPGKALKLLIYYTSSLHSGVPSRFSGSGSGTDYTLTISSLQPEDFATYYCQQYSNLPFTFGQGTKVEIK
notes: Humanized Fab with a TwinStrep tag at the C-terminus of the CH1 constant domain; also called version 6 of 5D3-Fab; antibody 6 (Fab format)
B2: 2-5D3-hFab (Fab, V domains shown)
VH: QVQLVQSGAEVKKPGASVKVSCKASGYAFNTSWMNWVRQAPGQGLEYIGRIYPGDGDTNYNGKFKGKATMTADKSISTVYMEVRRLRSDDTAVYYCARGEWYLYYFDYWGQGTLVTVSS
VL: B1 VL with Q38H, K39E, S77T, Q100G
notes: Humanized Fab with a TwinStrep tag at the C-terminus of the CH1 constant domain; also called version 2 of 5D3-Fab; antibody 2
B3: 5-5D3-hFab (Fab, V domains shown)
VH: B2 VH with A9P, K19R, V20L, Y47W, I76T, S77N, V79A, V83L, R85S, A97G
VL: B1 VL with L11V, T22S, P40L, K45Q, Q100P, E105D
notes: Humanized Fab with a TwinStrep tag at the C-terminus of the CH1 constant domain; also called version 5 of 5D3-Fab; antibody 5
B4: 6-5D3-IgG1 (antibody, V domains shown)
VH: B1 VH
VL: B1 VL
modifications: N-glycosylation at VH N30
notes: also called h5D3; humanized 5D3
B5: 5-5D3-IgG1 (antibody, V domains shown)
VH: B2 VH with A9P, K19R, V20L, Y47W, I76T, S77N, V79A, V83L, R85S, A97G
VL: B1 VL with L11V, T22S, P40L, K45Q, Q100P, E105D
notes: also called full-length humanized 5D3 version 5
B6: 2-5D3-IgG1 (antibody, V domains shown)
VH: B2 VH
VL: B1 VL with Q38H, K39E, S77T, Q100G
notes: also called full-length humanized 5D3 version 2
B7: h5D3 variant LVg2 (antibody, human IgG1, V domains shown)
VH: B1 VH
VL: B1 VL with N30E
notes: Full-length human IgG1 kappa variant of h5D3 (antibody 6)
B8: h5D3 variant LVg2HVg4 (antibody, human IgG1, V domains shown)
VH: B1 VH with N30Q, D55E, G62A
VL: B1 VL with N30E
notes: as for B7
B9: h5D3 variant HVg3 (antibody, human IgG1, V domains shown)
VH: B1 VH with N30Q, D55E, D57E, G62A
VL: B1 VL
notes: as for B7
B10: h5D3 variant LVg2HVg2 (antibody, human IgG1, V domains shown)
VH: B1 VH with N30Q, G56A, G62A
VL: B1 VL with N30E
notes: as for B7
B11: h5D3 variant LVg2HVg7 (antibody, human IgG1, V domains shown)
VH: B1 VH with N30Q
VL: B1 VL with N30E
notes: as for B7
B12: h5D3 variant LVg2HVg5 (antibody, human IgG1, V domains shown)
VH: B1 VH with N30Q, D55E, D57S, G62A
VL: B1 VL with N30E
notes: as for B7
B13: h5D3 variant HVg7 (antibody, human IgG1, V domains shown)
VH: B1 VH with N30Q
VL: B1 VL
notes: as for B7
B14: h5D3 variant HVg4 (antibody, human IgG1, V domains shown)
VH: B1 VH with N30Q, D55E, G62A
VL: B1 VL
notes: as for B7
B15: h5D3 variant HVg2 (antibody, human IgG1, V domains shown)
VH: B1 VH with N30Q, G56A, G62A
VL: B1 VL
notes: as for B7
B16: h5D3 variant LVg2HVg3 (antibody, human IgG1, V domains shown)
VH: B1 VH with N30Q, D55E, D57E, G62A
VL: B1 VL with N30E
notes: as for B7
B17: h5D3 variant HVg5 (antibody, human IgG1, V domains shown)
VH: B1 VH with N30Q, D55E, D57S, G62A
VL: B1 VL
notes: as for B7

The binders below were run against T1, human PSMA displayed on the surface of LNCaP cells (human, UniProt Q04609 1-750) (assay: flow cytometry on LNCaP cells, Fab titrated).
T1 construct: Endogenous PSMA on living LNCaP cells; also called PSMA-positive LNCaP cells
Protocol: (§1) Flow cytometry was used to analyze affinity and specificity of 5D3-hFabs for PSMA in its physiological environment, i.e., at the surface of living cells. To this end, LNCaP and DU145 cells were used as representatives of PSMA-positive and PSMA-negative cell lines, respectively, in a protocol described previously (Novakova, Belousova et al. (2020), Int. J. Mol. Sci., 21(18):6672). Briefly, cells were treated by three-fold dilution series of 5D3-hFabs in the concentration range 6000 nM-0.42 pM. Bound 5D3-hFabs were detected by the combination of anti-Strep tag antibody and goat anti-mouse secondary antibody conjugated to Alexa Fluor 647. Cell samples were immediately analyzed using a LSRFortessa flow cytometer.

T1 sequence (Q04609 whole entry): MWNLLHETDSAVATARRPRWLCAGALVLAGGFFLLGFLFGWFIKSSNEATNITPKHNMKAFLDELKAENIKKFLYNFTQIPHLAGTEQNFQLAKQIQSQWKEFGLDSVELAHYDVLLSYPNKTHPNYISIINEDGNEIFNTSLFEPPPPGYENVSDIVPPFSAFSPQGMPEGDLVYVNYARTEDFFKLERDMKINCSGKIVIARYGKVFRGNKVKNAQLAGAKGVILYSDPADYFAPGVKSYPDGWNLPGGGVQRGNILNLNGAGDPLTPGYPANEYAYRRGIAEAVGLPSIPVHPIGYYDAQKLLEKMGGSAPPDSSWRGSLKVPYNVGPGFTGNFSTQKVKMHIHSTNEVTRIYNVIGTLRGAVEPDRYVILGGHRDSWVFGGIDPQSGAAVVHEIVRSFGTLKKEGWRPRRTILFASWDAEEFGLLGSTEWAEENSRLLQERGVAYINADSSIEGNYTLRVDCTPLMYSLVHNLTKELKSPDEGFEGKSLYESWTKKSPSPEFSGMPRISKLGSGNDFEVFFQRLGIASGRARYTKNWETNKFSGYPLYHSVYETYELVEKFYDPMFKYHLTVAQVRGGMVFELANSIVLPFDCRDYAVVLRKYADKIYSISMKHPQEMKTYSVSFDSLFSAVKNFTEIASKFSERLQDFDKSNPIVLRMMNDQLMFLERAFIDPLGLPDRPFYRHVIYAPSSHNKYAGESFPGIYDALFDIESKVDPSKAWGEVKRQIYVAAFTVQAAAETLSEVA

Kd | Binder
2800 pM | B1
3000 pM | B2
4100 pM | B3

Each binder was assayed against T1, human PSMA displayed on the surface of … (assay: flow cytometry on LNCaP cells, IgG1 titrated).
Protocol: as §1
Flow cytometry was used to analyze affinity and specificity of humanized 5D3-IgG1s for PSMA in its physiological environment as described above and data are shown in FIG. 11 and Table 2.

Kd | Binder
560 pM | B4
770 pM | B5
640 pM | B6

What follows are binders tested against T2, recombinant human PSMA (prostate-specific membrane antigen), biotin-tagged (human, UniProt Q04609 44-750, biotin tag (site not stated)) (assay: native ELISA, streptavidin-captured biotin-tagged PSMA, Fab titrated).
T2 construct: also called biotin-tagged PSMA; biotin-labelled PSMA
Protocol: (§2) Native ELISA was used to measure affinity of 5D3-hFabs for human PSMA. Experiments were performed in 96-well MaxiSorp plates coated with streptavidin complexed with biotin-tagged PSMA. Purified 5D3-hFabs were applied in 2-fold dilution series in the concentration range of 2000 nM-0.95 pM and goat anti-human secondary antibody conjugated to horseradish peroxidase, together with the TMB substrate, was used for 5D3-hFabs detection. Data were processed using a Prism 6 software (GraphPad, San Diego, CA) and binding curves fitted using an embedded non-linear curve-fitting algorithm (FIG. 4, Table 1). Affinity of all variants tested was in a single-digit nanomolar range (1.8-2.7 nM) and virtually identical to the parent murine and chimeric Fabs, documenting successful humanization results.

T2 sequence (Q04609 44-750 limits assumed): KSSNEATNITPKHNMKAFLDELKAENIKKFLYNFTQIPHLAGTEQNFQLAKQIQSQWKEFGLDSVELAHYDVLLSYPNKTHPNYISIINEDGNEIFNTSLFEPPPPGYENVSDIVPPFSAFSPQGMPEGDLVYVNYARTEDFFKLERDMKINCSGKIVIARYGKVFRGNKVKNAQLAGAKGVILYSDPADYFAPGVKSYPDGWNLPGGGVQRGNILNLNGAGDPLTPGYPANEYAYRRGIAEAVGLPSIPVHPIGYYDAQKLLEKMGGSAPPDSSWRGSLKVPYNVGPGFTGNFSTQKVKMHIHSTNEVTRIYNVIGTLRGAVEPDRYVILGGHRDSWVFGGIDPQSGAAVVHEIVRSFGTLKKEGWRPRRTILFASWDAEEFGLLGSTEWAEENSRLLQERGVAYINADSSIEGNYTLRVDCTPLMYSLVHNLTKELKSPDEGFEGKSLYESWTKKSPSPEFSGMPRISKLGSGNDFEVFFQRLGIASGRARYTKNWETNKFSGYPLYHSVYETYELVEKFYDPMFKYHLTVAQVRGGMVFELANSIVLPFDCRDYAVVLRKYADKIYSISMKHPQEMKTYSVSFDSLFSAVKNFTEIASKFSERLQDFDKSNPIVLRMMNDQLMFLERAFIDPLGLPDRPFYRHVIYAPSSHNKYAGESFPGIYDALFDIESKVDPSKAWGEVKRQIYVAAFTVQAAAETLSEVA

Kd | Binder
1800 pM | B1
2700 pM | B2
1800 pM | B3

Each binder was assayed against T2, recombinant human PSMA … (assay: native ELISA, streptavidin-captured biotin-tagged PSMA, IgG1 titrated).
Protocol: as §2
Native ELISA was used to measure affinity of humanized 5D3-IgG1s for human PSMA in an experimental setup described above and binding curves together with corresponding KD values shown in FIG. 10 and Table 2, respectively. Affinity of all variants tested was in a picomolar range (260-380 pM) and virtually identical to the parent murine and chimeric full-length IgG1s, documenting successful outcome of the humanization process.

Kd | Binder
380 pM | B4
390 pM | B5
260 pM | B6

What follows are binders tested against T2, recombinant human PSMA … (assay: ELISA on plates coated with recombinant PSMA, column head 'ELISA (nM)').
Protocol: (§3) FIG. 16—Affinities of optimized full-length antibodies determined by ELISA. Plates coated with recombinant PSMA were probed with two-fold dilution series of individual antibodies and binding was visualized using goat anti-human secondary antibody conjugated to horseradish peroxidase together with the TMB substrate. Binding curves were fitted using a non-linear regression algorithm.
(§4) Also, the affinity of the optimized humanized 5D3 variants was determined by ELISA (FIG. 16, Table 4).

Kd | Binder
250 pM | B4
290 pM | B7
500 pM | B8
930 pM | B9
470 pM | B10
370 pM | B11
200 pM | B12
350 pM | B13
360 pM | B14
340 pM | B15
2690 pM | B16
60 pM | B17

Each binder was assayed against T2, recombinant human PSMA … (assay: ELISA on plates coated with recombinant PSMA, two-fold dilution series, goat anti-human-HRP and TMB).

EC50 (read off the curve) | Binder
~400 pM | B4
~400 pM | B5
~300 pM | B6

These binders were tested against T2, recombinant human PSMA … (assay: PSMA ELISA on plates coated with recombinant PSMA, two-fold dilution series, goat anti-human-HRP and TMB).

EC50 (read off the curve) | Binder
~400 pM | B4
~400 pM | B7
~900 pM | B9
~500 pM | B10
~400 pM | B15
~3000 pM | B16

Molecular target: T2, recombinant human PSMA …
Assay: as above
Remark: another data set of the same source
Protocol: as §3, §4

EC50 (read off the curve) | Binder
~500 pM | B4
~500 pM | B8
~400 pM | B11
~400 pM | B12
~400 pM | B13
~400 pM | B14
~200 pM | B17

What follows are binders tested against T2, recombinant human PSMA … (assay: ELISA on plates coated with recombinant PSMA (biotin-tagged, captured on streptavidin), two-fold dilution series, goat anti-human-HRP and TMB).
Protocol: as §3, with “4—Affinity” for “16—Affinities”, “Fab variants” for “optimized full-length antibodies”, “fragments” for “antibodies”, “binding” for “binding was”
as §2

EC50 (read off the curve) | Binder
~4000 pM | B1
~2000 pM | B2
~4000 pM | B3

What follows are binders tested against T1, human PSMA displayed on the surface of … (assay: flow cytometry titration on cells (three-fold dilution series, anti-Strep antibody and goat anti-mouse Alexa Fluor 647); the sheet does not name the cell line, the text gives the curves as binding to cell-surface PSMA (LNCaP)).
Protocol: FIG. 5—Affinity of Fab variants determined by flow cytometry. LNCaP (PSMA-positive) and DU145 (PSMA-negative) cell lines were probed with three-fold dilution series of tested Fab variants and bound antibodies visualized by the combination of anti-Strep and goat anti-mouse Alexa-Fluor647 antibodies. Cell samples were analyzed using a LSRFortessa flow cytometer and binding curves were fitted using a non-linear regression algorithm.
as §1

EC50 (read off the curve) | Binder
~3000 pM | B1
~3000 pM | B2
~4000 pM | B3
